{"source": "patent US7541141B2", "about": "“Method of using estrogen-related receptor alpha (ERRα) status to determine prognosis, treatment strategy and predisposition to breast cancer, and method of using ERRα as a therapeutic target for the treatment of breast cancer” (Wisconsin Alumni Research Foundation, priority 1997, dated 2009)", "key": {"ERRγ": {"target": "ERRγ (Homo sapiens, UniProt P62508)", "sequence (P62508 whole entry)": "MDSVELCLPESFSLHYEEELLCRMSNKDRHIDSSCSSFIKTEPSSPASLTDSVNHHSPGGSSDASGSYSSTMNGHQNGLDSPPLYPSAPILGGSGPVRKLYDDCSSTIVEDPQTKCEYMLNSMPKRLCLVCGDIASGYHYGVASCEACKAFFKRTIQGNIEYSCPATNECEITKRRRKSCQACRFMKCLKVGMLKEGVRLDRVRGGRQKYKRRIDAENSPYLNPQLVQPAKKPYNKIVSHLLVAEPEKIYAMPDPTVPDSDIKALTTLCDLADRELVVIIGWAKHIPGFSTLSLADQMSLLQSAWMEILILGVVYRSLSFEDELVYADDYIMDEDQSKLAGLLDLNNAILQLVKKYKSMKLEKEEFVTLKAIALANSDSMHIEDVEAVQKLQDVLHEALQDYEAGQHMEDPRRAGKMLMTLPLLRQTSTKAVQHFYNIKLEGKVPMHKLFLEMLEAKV", "conditions": "cell-based assays; cited from earlier work"}, "[1]": {"system": "ERE-dependent transcription in HeLa cells", "experiment": "p3xERE-TK-luc luciferase reporter, transient transfection", "format": "cell-based, human", "conditions": "whole FBS", "method": "Transient Transfections and Luciferase Assays: To assess the role ERRα plays in regulating transcription of an ERE-containing promoter, MCF-7 or HeLa cells grown in 12-well tissue culture plates were co-transfected in parallel with 0.5 μg of pTK-luc versus p3xERE-TK-luc along with the indicated amounts of the empty cloning vector pcDNA3.1, the ERRα1 expression plasmid pcDNA3.1-hERRα1, or mutant variants thereof. Transfections were performed with the aid of the TransIT LT1 transfection reagent (PanVera, Madison, Wis.) as previously described (35). To examine the effects of ER ligands, […] (E2) (Sigma) or the pure anti-estrogen ICI-182,780 (Astra Zeneca, London, UK) dissolved in ethanol and diluted in medium to obtain the indicated concentrations. Cells were harvested 48 h post-transfection, and lysates were assayed for luciferase activity normalized to protein concentration as previously described (36).\nERRα Activates Transcription in HeLa Cells: Our finding that ERRα represses transcription from an ERE-controlled promoter was somewhat surprising since most reports in the literature conclude that ERR family members function as transcriptional activators of ERE-dependent transcription (17-31). […]"}, "[2]": {"system": "ERE-dependent transcription in MCF-7 cells", "experiment": "p3xERE-TK-luc luciferase reporter, transient transfection", "format": "cell-based, human", "method": "(§1) Transient Transfections and Luciferase Assays: To assess the role ERRα plays in regulating transcription of an ERE-containing promoter, MCF-7 or HeLa cells grown in 12-well tissue culture plates were co-transfected in parallel with 0.5 μg of pTK-luc versus p3xERE-TK-luc along with the indicated amounts of the empty cloning vector pcDNA3.1, the ERRα1 expression plasmid pcDNA3.1-hERRα1, or mutant variants thereof. Transfections were performed with the aid of the TransIT LT1 transfection reagent (PanVera, Madison, Wis.) as previously described (35). To examine the effects of ER ligands, cells were maintained in stripped medium for 48 h before transfection and the addition of 17β-estradiol (E2) (Sigma) or the pure anti-estrogen ICI-182,780 (Astra Zeneca, London, UK) dissolved in ethanol and diluted in medium to obtain the indicated concentrations. Cells were harvested 48 h post-transfection, and lysates were assayed for luciferase activity normalized to protein concentration as previously described (36).\nERRα Represses Transcription in MCF-7 Cells: Because ERRα can interfere with the binding of ERα to this ERE, might it affect estrogen-responsive transcription? To answer this question, we co-transfected ERα-positive mammary MCF-7 cells in parallel with p3xERE-TK-luc, a reporter plasmid containing three tandem copies of this ERE (FIG. 14A) or the ERE-negative control plasmid, pTK-luc, together with 0.12 or 0.25 μg of the ERRα1 expression plasmid, pcDNA3.1-hERRα1, or the empty parental expression plasmid, pcDNA3.1. After incubation for 48 h in medium containing whole FBS, the cells were harvested and assayed for luciferase activity. The presence of the EREs conferred an about 150-fold increase in transcriptional activity above the level observed in the cells transfected with the ERE-negative reporter plasmid (FIG. 14B). […] Thus, ERRα inhibits the estrogen-responsive activation of transcription from this ERE-containing promoter in this ER-positive MCF-7 cell line.\nERRα Modulates Estrogen-responsiveness in MCF-7 Cells: To directly examine the effect of ERRα on the response to estrogen, MCF-7 cells were cultured in medium containing estrogen-free charcoal-stripped FBS and cotransfected as described above but in the absence or presence of E2. […] Once again, overexpression of ERRα repressed ERE-dependent transcription approximately 3-fold while having little if any effect on transcription of the control reporter (FIG. 15A)."}, "ERRα": {"target": "T1, ERRα (Homo sapiens, UniProt P11474)", "T1 sequence (P11474 1-423)": "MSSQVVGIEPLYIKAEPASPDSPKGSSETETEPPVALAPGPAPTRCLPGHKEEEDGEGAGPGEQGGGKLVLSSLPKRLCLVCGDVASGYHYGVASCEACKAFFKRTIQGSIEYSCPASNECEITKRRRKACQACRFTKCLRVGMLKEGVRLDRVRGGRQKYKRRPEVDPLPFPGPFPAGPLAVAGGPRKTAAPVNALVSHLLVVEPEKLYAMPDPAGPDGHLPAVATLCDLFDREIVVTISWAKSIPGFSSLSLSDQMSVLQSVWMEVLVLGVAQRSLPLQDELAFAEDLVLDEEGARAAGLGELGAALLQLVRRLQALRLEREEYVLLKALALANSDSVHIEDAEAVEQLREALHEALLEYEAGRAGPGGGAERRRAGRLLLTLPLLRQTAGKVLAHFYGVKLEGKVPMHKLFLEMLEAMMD", "conditions": "cited from earlier work"}, "[3]": {"system": "ERE-independent TK-luc transcription in MCF-7 cells", "experiment": "pTK-luc ERE-negative control luciferase reporter, transient transfection", "format": "cell-based, human", "conditions": "whole FBS, 48 h", "method": "as §1"}, "[4]": {"conditions": "0.12 or 0.25 μg expression plasmid, whole FBS, 48 h"}}}
{"molecule": "4-hydroxytamoxifen", "values": [{"measurement": "Effect on ERRγ (literature)", "setting": "ERRγ", "result": "selectively antagonizes ERRγ"}]}
{"molecule": "C[C@]12CC[C@@H]3c4ccc(O)cc4C[C@@H](CCCCCCCCC[S+]([O-])CCCC(F)(F)C(F)(F)F)[C@H]3[C@@H]1CC[C@@H]2O", "note": "(some centres unmarked) [ICI-182,780, reference compound]", "values": [{"measurement": "Effect of anti-estrogen on ERE-dependent activity", "setting": "[1]", "result": "completely insensitive"}, {"measurement": "Effect of anti-estrogen on ERE-dependent activity", "setting": "[2]; 1×10^−6 M, charcoal-stripped FBS plus 1×10^−8 M E2", "result": "extremely sensitive"}, {"measurement": "Effect of anti-estrogen on E2 induction of ERE reporter", "setting": "[2]; 1×10^−6 M, charcoal-stripped FBS plus 1×10^−10 M E2", "result": "completely eliminated"}, {"measurement": "Effect of anti-estrogen on ERE-dependent activity", "setting": "[2]; 1×10^−6 M, charcoal-stripped FBS, no exogenous E2", "result": "largely ablated"}, {"measurement": "Effect of anti-estrogen on ERE-dependent activity", "setting": "[2]; 1×10^−6 M, medium with whole FBS", "result": "extremely sensitive"}]}
{"molecule": "ClC1=C(Cl)C2(Cl)C3C(Cl)C(Cl)CC3C1(Cl)C2(Cl)Cl", "note": "(centres unmarked) [chlordane]", "values": [{"measurement": "Effect on ERRα activity (literature)", "setting": "ERRα", "result": "decrease the activity of ERRα"}]}
{"molecule": "CC1(C)C(C(Cl)Cl)C2(Cl)C(Cl)C(Cl)C1(Cl)C2(Cl)Cl", "note": "(centres unmarked) [toxaphene]", "values": [{"measurement": "Effect on ERRα activity (literature)", "setting": "ERRα", "result": "decrease the activity of ERRα"}]}
{"molecule": "ERRα: wild-type human ERRα1 overexpressed from plasmid pcDNA3.1-hERRα1 (protein) MSSQVVGIEPLYIKAEPASPDSPKGSSETETEPPVALAPGPAPTRCLPGHKEEEDGEGAGPGEQGGGKLVLSSLPKRLCLVCGDVASGYHYGVASCEACKAFFKRTIQGSIEYSCPASNECEITKRRRKACQACRFTKCLRVGMLKEGVRLDRVRGGRQKYKRRPEVDPLPFPGPFPAGPLAVAGGPRKTAAPVNALVSHLLVVEPEKLYAMPDPAGPDGHLPAVATLCDLFDREIVVTISWAKSIPGFSSLSLSDQMSVLQSVWMEVLVLGVAQRSLPLQDELAFAEDLVLDEEGARAAGLGELGAALLQLVRRLQALRLEREEYVLLKALALANSDSVHIEDAEAVEQLREALHEALLEYEAGRAGPGGGAERRRAGRLLLTLPLLRQTAGKVLAHFYGVKLEGKVPMHKLFLEMLEAMMD", "values": [{"measurement": "Activation of transcription from p3xERE-TK-luc by overexpression", "setting": "[1]; 48 h", "result": 2.5, "unit": "fold"}, {"measurement": "Repression of ERE-dependent transcription by overexpression", "setting": "[2]; [4]", "result": "3-4 fold"}, {"measurement": "Inhibition of E2-mediated activation of transcription by overexpression", "setting": "[2]; charcoal-stripped FBS plus 1×10^−8 M E2", "result": "no longer inhibited"}, {"measurement": "Inhibition of E2-mediated activation of transcription by overexpression", "setting": "[2]; charcoal-stripped FBS plus 1×10^−10 M E2", "result": "3-5 fold"}, {"measurement": "Repression of ERE-dependent transcription by overexpression", "setting": "[2]; charcoal-stripped FBS, no exogenous E2", "result": "approximately 3 fold"}]}
{"molecule": "ERRα1413A/418A: ERRα1 variant with alanine in place of leucine at amino acids 413 and 418 (NR box) (protein) MSSQVVGIEPLYIKAEPASPDSPKGSSETETEPPVALAPGPAPTRCLPGHKEEEDGEGAGPGEQGGGKLVLSSLPKRLCLVCGDVASGYHYGVASCEACKAFFKRTIQGSIEYSCPASNECEITKRRRKACQACRFTKCLRVGMLKEGVRLDRVRGGRQKYKRRPEVDPLPFPGPFPAGPLAVAGGPRKTAAPVNALVSHLLVVEPEKLYAMPDPAGPDGHLPAVATLCDLFDREIVVTISWAKSIPGFSSLSLSDQMSVLQSVWMEVLVLGVAQRSLPLQDELAFAEDLVLDEEGARAAGLGELGAALLQLVRRLQALRLEREEYVLLKALALANSDSVHIEDAEAVEQLREALHEALLEYEAGRAGPGGGAERRRAGRLLLTLPLLRQTAGKVLAHFYGVKLEGKVPMHKAFLEMAEAMMD", "values": [{"measurement": "Up-regulation of ERE-independent TK-luc transcription by overexpression", "setting": "[3]", "result": "approximately 2 fold"}, {"measurement": "Repression of ERE-dependent transcription by overexpression", "setting": "[2]; [4]", "result": "5-8 fold"}, {"measurement": "Repressive effect on ERE-dependent transcription normalized to the control", "setting": "[2]; normalized to pTK-luc control", "result": "10-16 fold"}]}
{"molecule": "ERRα1P-box: ERRα1 variant with E97G/A98S/A101V in the P-box, unable to bind DNA (protein) MSSQVVGIEPLYIKAEPASPDSPKGSSETETEPPVALAPGPAPTRCLPGHKEEEDGEGAGPGEQGGGKLVLSSLPKRLCLVCGDVASGYHYGVASCGSCKVFFKRTIQGSIEYSCPASNECEITKRRRKACQACRFTKCLRVGMLKEGVRLDRVRGGRQKYKRRPEVDPLPFPGPFPAGPLAVAGGPRKTAAPVNALVSHLLVVEPEKLYAMPDPAGPDGHLPAVATLCDLFDREIVVTISWAKSIPGFSSLSLSDQMSVLQSVWMEVLVLGVAQRSLPLQDELAFAEDLVLDEEGARAAGLGELGAALLQLVRRLQALRLEREEYVLLKALALANSDSVHIEDAEAVEQLREALHEALLEYEAGRAGPGGGAERRRAGRLLLTLPLLRQTAGKVLAHFYGVKLEGKVPMHKLFLEMLEAMMD", "values": [{"measurement": "Induction of ERE-dependent transcription by overexpression", "setting": "[2]; whole FBS, 48 h", "result": "2-3 fold"}]}
